Source: US20130143953A1 (TRUSTEES OF TUFTS COLLEGE, published 2013)

Columns and labels:
[1] = molecular target: human membrane attack complex (C5b-9) formed from normal human serum on mouse cells (human) (UniProt P01031); assay: cell-based or functional assay
[2] = molecular target: human membrane attack complex (C5b-9) formed from normal human serum on mouse cells (human, UniProt P01031 752-1676; P13671 22-934; P10643 23-843; P07357 31-584; P07358 55-591; …); assay: cell-based or functional assay

Binder	complement mediated cell lysis (PI uptake, FACS; hepa-1c1c7 cells, 1000 vp/cell AdCAGCD59, 1% NHS) [1] [%]	fold reduction of complement mediated cell lysis (PI uptake, FACS; hepa-1c1c7 cells, 1000 vp/cell AdCAGCD59, 1% NHS) [1] [fold]	inhibition of cell lysis at 250 vp/cell AdCAGCD59 (hepa-1c1c7 cells, NHS) [1] [%]	inhibition of cell lysis at 500 vp/cell AdCAGCD59 (hepa-1c1c7 cells, NHS) [1] [%]	reduction in MAC immunofluorescence intensity on mouse corneal endothelium (ex vivo, 50% NHS, 20 minutes) [1] [%]	reduction in MAC immunofluorescence on mouse eyecups, 7.5 minutes NHS [1] [%]	reduction in MAC immunofluorescence on mouse eyecups, 15 minutes NHS [1] [%]	reduction in mean MAC immunofluorescence intensity on mouse eyecup RPE at the area of GFP expression [1] [%]	protection against cell lysis relative to AdCAGGFP-conditioned media with NHS (Hepa-1c1c7 cells) [2] [%]
human CD59, GPI-anchored membrane form expressed from the AdCAGCD59 vector (protein, UniProt P13987 26-102, looked up, glycosyl phosphatidyl inositol (GPI) anchor at asparagine 77 of the mature protein; N-glycosylated) LQCYNCPNPTADCKTAVNCSSDFDACLITKAGLQVYNKCWKFEHCNFNDVTTRLRENELTYYCCKKDLCNFNEQLEN	12.3	8	> 50	> 70	86	68	56	55	
membrane-independent (soluble) human CD59 lacking the C-terminal 26 amino acids, expressed from AdCAGsCD59 or AAVCAGsCD59 (other, N-glycosylated forms (14-18 kDa)) LQCYNCPNPTADCKTAVNCSSDFDACLITKAGLQVYNKCWKFEHCNFNDVTTRLRENELTYYCCKKDLCNFNEQLEN									34.1
